Consider 1 molecule from US20190092839A1 (INSTITUTE FOR BASIC SCIENCE, published 2019).

The target in this assay is T1, iRFP-pMagH-C-term VHHActin.
T1 construct: not shown: iRFP fluorescent protein of the piRFP construct (Addgene 31857)
The experiment in a line: inferred from relocalisation of fluorescence in HeLa cells after 488 nm light (nMagH with pMagH).

T1 sequence (chain, as listed by the source): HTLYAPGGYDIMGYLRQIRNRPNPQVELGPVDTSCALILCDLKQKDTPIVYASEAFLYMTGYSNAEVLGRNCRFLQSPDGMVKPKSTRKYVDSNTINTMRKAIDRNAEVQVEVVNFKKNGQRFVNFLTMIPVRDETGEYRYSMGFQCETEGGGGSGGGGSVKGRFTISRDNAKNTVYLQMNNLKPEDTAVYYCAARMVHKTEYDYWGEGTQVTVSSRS

B1: N-term VHHActin-nMagH-mCherry (other)
chain: MAQVQLVESGGGLTQAGGSLRLSCATSGLIFSAFGMGWFRQAPGKEREFVGGINWRGSTNYGDFGGGGSGGGGSHTLYAPGGYDIMGYLDQIGNRPNPQVELGPVDTSCALILCDLKQKDTPIVYASEAFLYMTGYSNAEVLGRNCRFLQSPDGMVKPKSTRKYVDSNTINTIRKAIDRNAEVQVEVVNFKKNGQRFVNFLTIIPVRDETGEYRYSMGFQCETE
notes: not shown: mCherry red fluorescent protein of the pmCherry construct (engineered)
Turning to B1, the binding result was “binds”.
